Source: IntAct's records for PubMed 26297806

B1: Progesterone-induced-blocking factor 1 (Homo sapiens), Q8WXW3 (parent)
chain: MSRKISKESKKVNISSSLESEDISLETTVPTDDISSSEEREGKVRITRQLIERKELLHNIQLLKIELSQKTMMIDNLKVDYLTKIEELEEKLNDALHQKQLLTLRLDNQLAFQQKDASKYQELMKQEMETILLRQKQLEETNLQLREKAGDVRRNLRDFELTEEQYIKLKAFPEDQLSIPEYVSVRFYELVNPLRKEICELQVKKNILAEELSTNKNQLKQLTETYEEDRKNYSEVQIRCQRLALELADTKQLIQQGDYRQENYDKVKSERDALEQEVIELRRKHEILEASHMIQTKERSELSKEVVTLEQTVTLLQKDKEYLNRQNMELSVRCAHEEDRLERLQAQLEESKKAREEMYEKYVASRDHYKTEYENKLHDELEQIRLKTNQEIDQLRNASREMYERENRNLREARDNAVAEKERAVMAEKDALEKHDQLLDRYRELQLSTESKVTEFLHQSKLKSFESERVQLLQEETARNLTQCQLECEKYQKKLEVLTKEFYSLQASSEKRITELQAQNSEHQARLDIYEKLEKELDEIIMQTAEIENEDEAERVLFSYGYGANVPTTAKRRLKQSVHLARRVLQLEKQNSLILKDLEHRKDQVTQLSQELDRANSLLNQTQQPYRYLIESVRQRDSKIDSLTESIAQLEKDVSNLNKEKSALLQTKNQMALDLEQLLNHREELAAMKQILVKMHSKHSENSLLLTKTEPKHVTENQKSKTLNVPKEHEDNIFTPKPTLFTKKEAPEWSKKQKMKT
partner: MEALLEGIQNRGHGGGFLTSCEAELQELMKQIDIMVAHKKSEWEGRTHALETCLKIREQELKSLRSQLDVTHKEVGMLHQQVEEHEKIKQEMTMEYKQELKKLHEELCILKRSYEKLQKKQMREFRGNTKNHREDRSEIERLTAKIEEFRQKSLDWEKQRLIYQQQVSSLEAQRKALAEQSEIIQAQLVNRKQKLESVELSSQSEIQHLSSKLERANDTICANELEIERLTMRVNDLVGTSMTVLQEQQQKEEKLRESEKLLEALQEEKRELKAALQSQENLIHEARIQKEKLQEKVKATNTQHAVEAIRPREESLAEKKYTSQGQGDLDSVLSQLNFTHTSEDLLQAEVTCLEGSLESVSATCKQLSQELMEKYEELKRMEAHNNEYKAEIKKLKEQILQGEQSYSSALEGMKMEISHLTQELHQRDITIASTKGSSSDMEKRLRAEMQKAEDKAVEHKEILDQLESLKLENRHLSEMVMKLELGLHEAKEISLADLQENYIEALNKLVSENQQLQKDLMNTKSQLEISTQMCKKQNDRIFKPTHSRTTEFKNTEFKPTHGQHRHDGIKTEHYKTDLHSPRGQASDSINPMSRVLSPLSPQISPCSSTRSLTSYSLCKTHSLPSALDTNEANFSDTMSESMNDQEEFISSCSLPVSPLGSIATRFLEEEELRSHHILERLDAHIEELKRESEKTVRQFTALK

Variants of: B1
Conditions: with cep63_human CEP63, Q96MT8

Row | effect of a mutation on the interaction | Variant
1 | disrupting interaction strength | E89Q
